Protein stability index data for 36 sequences are collected here from the supplement of paper PMC10567573.

A short description of the series: protein stability index of a GFP-peptide fusion (GPS, HEK-293T) (PSI 1-6); higher = more stable. The following applies: c terminus: a fixed tail appended.

± gives the standard deviation.
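Note: 24-mer peptide tiles fused after GFP, lentivirally expressed, FACS-sorted into six equal bins by GFP/DsRed ratio, decoded by Illumina sequencing, PSI is the read-weighted mean bin number.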

For LLIYTVKIRRFNKAKPEPDILEEE [TMEM192], the protein stability index is 2.31 ± 0.32 (treatment: DMSO) and 2.29 ± 0.31 (treatment: MLN4924 1 uM, 8 h).

Take LLKFDNSYSLWRSKSVYYRVYYTR [ACBD3]: the protein stability index reads like this: (treatment: DMSO) 2.41 ± 0.55; (treatment: MLN4924 1 uM, 8 h) 2.49 ± 0.54.

In the case of LLLCLKVDNHFNLLTTSPVFPHYI [TRIM43], the protein stability index reads like this: (treatment: DMSO) 3.03 ± 0.52; (treatment: MLN4924 1 uM, 8 h) 3.08 ± 0.64.

Take LLMAVVSMFTLPVVYVKHQAQIDQ [RTN1]: the protein stability index turned out to be 2.99 ± 0.39 (treatment: DMSO) and 3.32 ± 0.43 (treatment: MLN4924 1 uM, 8 h).

On to LLQRELMVPGTRHSAVLRDLRSGT [TNXB], for which the protein stability index stood at 2.43 ± 0.3 (treatment: DMSO) and 2.75 ± 0.28 (treatment: MLN4924 1 uM, 8 h).

As for LLSSSEEECKDRERPMYGRDSAYQ [EMD], the protein stability index is, setting by setting: (treatment: DMSO) 4.48 ± 0.23; (treatment: MLN4924 1 uM, 8 h) 4.51 ± 0.46.

In the case of LMDCCLIVYHPYRPLLQYVQDMGQ [CCNC], the protein stability index (treatment: DMSO) amounted to 3.26 ± 0.83 and the protein stability index (treatment: MLN4924 1 uM, 8 h) came to 3.17 ± 0.55.

With LMKHKSRKRRLFCTMEPEPVQPGM [TRIM35], the protein stability index is, setting by setting: (treatment: DMSO) 3.51 ± 0.49; (treatment: MLN4924 1 uM, 8 h) 3.43 ± 0.17.

With LMLGKTSISDLSEHVFDLILELYN [PDS5B], the protein stability index stood at 2.59 ± 0.33 (treatment: DMSO) and 2.44 ± 0.47 (treatment: MLN4924 1 uM, 8 h).

For the sequence LNAELEEKMMQEAEKLKAQGEYSR [CCDC89], the protein stability index by setting is: (treatment: DMSO) 3.61 ± 0.28; (treatment: MLN4924 1 uM, 8 h) 3.71 ± 0.39.

On to LNTLTLNVKSEKVYTRHGVPISVT [FLOT1], for which the protein stability index reads like this: (treatment: DMSO) 2.51 ± 0.079; (treatment: MLN4924 1 uM, 8 h) 2.61 ± 0.21.

As to LNYLRDGSVPLPESTRELGELLGE [KCTD13], the protein stability index is, setting by setting: (treatment: DMSO) 4.5 ± 0.21; (treatment: MLN4924 1 uM, 8 h) 4.64 ± 0.24.

With LPNHKPKGTFKDYVRDRADLNKDK [ETS1], the protein stability index runs as follows: (treatment: DMSO) 4.552 ± 0.017; (treatment: MLN4924 1 uM, 8 h) 4.74 ± 0.32.

Regarding LPQPLAAHAGAVHNGKIYISGGVH [KLHL14], the protein stability index was determined as 3.17 ± 0.24 (treatment: DMSO) and 3.27 ± 0.3 (treatment: MLN4924 1 uM, 8 h).

As to LPSNLVQYYDDEKKTWKILTIMPY [KLHL14], the protein stability index reads like this: (treatment: DMSO) 2.42 ± 0.33; (treatment: MLN4924 1 uM, 8 h) 2.3 ± 0.12.

Take LPVLRGFPAKYIYDPWNAPEGIQK [CRY1]: the protein stability index runs as follows: (treatment: DMSO) 2.39 ± 0.17; (treatment: MLN4924 1 uM, 8 h) 2.28 ± 0.34.

As to LQSFEDLASISTYGFRGEALASIS [MLH1], the protein stability index was determined as 2.78 ± 0.16 (treatment: DMSO) and 2.71 ± 0.3 (treatment: MLN4924 1 uM, 8 h).

LQSISWDPEDFEDAWKRPDALPGQ [TLE6]: the protein stability index runs as follows: (treatment: DMSO) 3.98 ± 0.29; (treatment: MLN4924 1 uM, 8 h) 3.87 ± 0.43.

As for LQSLDDTELRLLGRTHSACDALRT [RSAD1], the protein stability index is, setting by setting: (treatment: DMSO) 3.64 ± 0.2; (treatment: MLN4924 1 uM, 8 h) 3.85 ± 0.18.

Consider LRAELQGHHAEKLPAGAGAPKAGL [TNFSF13B], for which the protein stability index is 4.34 ± 0.32 (treatment: DMSO) and 4.45 ± 0.35 (treatment: MLN4924 1 uM, 8 h).

Take LRALKLVITALKCHKYDRNIQVTG [ZER1]: the protein stability index runs as follows: (treatment: DMSO) 3.14 ± 0.42; (treatment: MLN4924 1 uM, 8 h) 3.16 ± 0.65.

As for LRDKIMATTIDNSRVILEIDNARL [KRT15], the protein stability index amounted to 2.59 ± 0.27 (treatment: DMSO) and 2.66 ± 0.2 (treatment: MLN4924 1 uM, 8 h).

Take LRESIASYLSLTSEDNTSFDRKKK [SLA]: the protein stability index (treatment: DMSO) is 3.9 ± 0.16 and the protein stability index (treatment: MLN4924 1 uM, 8 h) was 3.81 ± 0.15.

Consider LRGALQQGEAFQRALESELQQLRA [PBXIP1], for which the protein stability index is, setting by setting: (treatment: DMSO) 3.56 ± 0.24; (treatment: MLN4924 1 uM, 8 h) 3.67 ± 0.23.

On to LRGSYNSLHDGSDGLDGISVGSYL [LURAP1L], for which the protein stability index runs as follows: (treatment: DMSO) 3.08 ± 0.24; (treatment: MLN4924 1 uM, 8 h) 3.1 ± 0.15.

LRVLGSMCQRLRSMQYNGSYFDRG [DFFB] came in with a protein stability index (treatment: DMSO) of 2.14 ± 0.29 and a protein stability index (treatment: MLN4924 1 uM, 8 h) of 2.23 ± 0.17.

With LSFAHANCTLIISYQKPKEVVVAE [DPCD], the protein stability index worked out at 2.69 ± 0.84 (treatment: DMSO) and 2.79 ± 0.73 (treatment: MLN4924 1 uM, 8 h).

Take LSFYNVTDRSHIYTFTDTFTEKLW [TRIM39]: the protein stability index reads like this: (treatment: DMSO) 2.52 ± 0.31; (treatment: MLN4924 1 uM, 8 h) 2.3 ± 0.32.

As for LSIINFFERLCLTWMFFFMMCVAE [PHTF1], the protein stability index is, setting by setting: (treatment: DMSO) 3.41 ± 1.2; (treatment: MLN4924 1 uM, 8 h) 2.81 ± 0.2.

Regarding LSKDHQEVETEGPESADTGDKSES [TOR1AIP2], the protein stability index by setting is: (treatment: DMSO) 5.67 ± 0.18; (treatment: MLN4924 1 uM, 8 h) 5.59 ± 0.19.

Turning to LSLEEELSRVKAAALSERGQAEEE [LRRC45], the protein stability index reads like this: (treatment: DMSO) 5.45 ± 0.2; (treatment: MLN4924 1 uM, 8 h) 5.37 ± 0.16.

As to LSQMGAQSSGKILLCPLCQEEEQA [TRIM15], the protein stability index was found to be 3.85 ± 0.5 (treatment: DMSO) and 4.39 ± 0.23 (treatment: MLN4924 1 uM, 8 h).

On to LSRLSVNSVTAGDYSRPLHISTFI [TSN], for which the protein stability index (treatment: DMSO) stood at 2.42 ± 0.61 and the protein stability index (treatment: MLN4924 1 uM, 8 h) came to 2.31 ± 0.24.

Turning to LSWYRGRRPRTAFTQNQIEVLENV [HESX1], the protein stability index was 3.03 ± 0.094 (treatment: DMSO) and 3 ± 0.28 (treatment: MLN4924 1 uM, 8 h).

For LTEQQEQLRGQLQDLDSRLRAGSS [RASAL3], the protein stability index was found to be 5.08 ± 0.18 (treatment: DMSO) and 5.19 ± 0.23 (treatment: MLN4924 1 uM, 8 h).

LTEQVWKVQDALQNQSDSLLALAG [SCARA5] displayed a protein stability index (treatment: DMSO) of 3.65 ± 0.16 and a protein stability index (treatment: MLN4924 1 uM, 8 h) of 3.82 ± 0.37.
